# Data published in doi:10.1101/2024.10.26.620377 (bioRxiv, 2024).
# B1: β-arrestin1-GFP2 (natural protein)
# chain: MGDKGTRVFKKASPNGKLTVYLGKRDFVDHIDLVDPVDGVVLVDPEYLKERRVYVTLTCAFRYGREDLDVLGLTFRKDLFVANVQSFPPAPEDKKPLTRLQERLIKKLGEHAYPFTFEIPPNLPCSVTLQPGPEDTGKACGVDYEVKAFCAENLEEKIHKRNSVRLVIRKVQYAPERPGPQPTAETTRQFLMSDKPLHLEASLDKEIYYHGEPISVNVHVTNNTNKTVKKIKISVRQYADICLFNTAQYKCPVAMEEADDTVAPSSTFCKVYTLTPFLANNREKRGLALDGKLKHEDTNLASSTLLREGANREILGIIVSYKVKVKLVVSRGGLLGDLASSDVAVELPFTLMHPKPKEEPPHREVPENETPVDTNLIELDTNDDDIVFEDFARQRLKGMKDDKEEEEDGTGSPQLNNR
# Tests used:
# [1] = target: GPR52 H8-A mutant, receptor-RLuc8 (human) (UniProt Q9Y2T5)
# [2] = target: GPR52 H8-A mutant, receptor-RLuc8 (human) (UniProt Q9Y2T5); experiment: FRET or BRET
# [3] = target: T1, GPR52 (wild-type), receptor-RLuc8 BRET biosensor (human, UniProt Q9Y2T5 1-361); experiment: FRET or BRET
# [4] = target: T1, GPR52 (wild-type), receptor-RLuc8 BRET …; experiment: FRET or BRET; remark: listed apart in the source
Molecule,"Tango assay, constitutive β-arrestin2 recruitment, % Emax relative to wild-type [1] [% Emax]","% Emax of BRET, unliganded, relative to wild-type [2] [% Emax]","% Emax of BRET, unliganded, relative to the GLP-1R full response [3] [% Emax]","% Emax of BRET, agonist-induced, relative to the GLP-1R full response [4] [% Emax]","% Emax of BRET, agonist-induced, relative to wild-type [2] [% Emax]"
β-arrestin2-GFP2 (from UniProt P32121 1-409) (natural protein),300,451,,,
B1,,,5.1,19.5,470
